According to patent publication US20180305460A1 (Teva, published 2018):
Residue numbers refer to the chain shown, from its start. Names and notes keep the numbering of the source. One block for each binder: values may come before it.

Assays:
[1] = target: Human CD38 (soluble analyte in the SPR assay) (human, UniProt P28907 43-300); test: SPR (Biacore), antibody captured on Protein A from supernatant, CD38 injected; weakest KD among the separate SPR experiments
[2] = target: T1, interferon-alpha/β receptor (IFNAR) (human, UniProt P17181); test: cell-based or functional assay
T1 sequence (receptor (subunits not named in the filing), looked up): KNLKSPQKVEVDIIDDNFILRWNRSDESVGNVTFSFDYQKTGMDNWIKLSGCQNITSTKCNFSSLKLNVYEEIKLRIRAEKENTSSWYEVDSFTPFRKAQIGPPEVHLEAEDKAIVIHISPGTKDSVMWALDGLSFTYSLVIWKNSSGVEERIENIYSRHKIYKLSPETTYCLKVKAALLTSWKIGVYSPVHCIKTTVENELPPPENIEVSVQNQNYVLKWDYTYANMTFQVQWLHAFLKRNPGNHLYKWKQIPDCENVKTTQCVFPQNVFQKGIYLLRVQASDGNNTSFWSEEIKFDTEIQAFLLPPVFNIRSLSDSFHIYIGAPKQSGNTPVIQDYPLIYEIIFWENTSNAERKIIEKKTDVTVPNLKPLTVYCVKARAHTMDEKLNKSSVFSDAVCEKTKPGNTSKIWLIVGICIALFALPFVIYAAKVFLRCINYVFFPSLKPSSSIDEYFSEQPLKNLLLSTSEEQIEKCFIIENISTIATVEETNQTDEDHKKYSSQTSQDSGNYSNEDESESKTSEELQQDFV

[3] = target: Human CD38 on CD38-positive myeloma cell lines ARP-1 and H929 (human, UniProt P28907 43-300); test: flow cytometry on ARP-1 cells, purified protein
[4] = target: T2, Human CD38 (human, UniProt P28907 43-300); test: SPR (Biacore), the experiment for all other antibodies of Table 7
[5] = target: T2, Human CD38; test: SPR (Biacore), the separate experiment in which X02.107 was evaluated
[6] = target: T2, Human CD38; test: SPR (Biacore), antibody from supernatant captured on Protein A, human CD38 injected, 1:1 fit; separate experiment in which X02.1 gave 2.7 × 10^-8
[7] = target: T3, Human CD38 on CD38-positive myeloma cells (ARP-1, H929) (human, UniProt P28907 43-300); test: flow cytometry, ARP-1 cells (CD38-positive)
T3 construct: Endogenous CD38 on the human myeloma cell lines ARP-1 and H929, used in flow cytometry; also called NCI-H929

[8] = target: T2, Human CD38; test: SPR (Biacore), antibody from supernatant captured on Protein A, human CD38 injected, 1:1 fit

- Kd [1]: 0.378 to 27 nM
B1: X02.1 (antibody, human IgG4 S228P, lambda)
heavy: not shown
light: QAVLTQPASLSASPGESARLTCTLPSDINVRYYNIYWYQQKPGSPPRYLLYYYSDSHKGQGSGVPSRFSGSKDVSTNSGILLISGLQSEDEADYYCMTWSSNGSGVFGGGTQLTVLGQPKAAPSVTLFPPSSEELQANKATLVCLISDFYPGAVTVAWKADSSPVKAGVETTTPSKQSNNKYAASSYLSLTPEQWKSHRSYSCQVTHEGSTVEKTVAPTECS
notes: also called parental antibody X02.1; unfused form of A02.1 (X355/02)

- EC50; HEK-Blue IFN-alpha/β SEAP reporter (A630) on CD38-negative cells, the unit comes from the x axis 'IFN pM' [2]: 667 pM
B2: A02.6 (wt. IFN) (antibody)
chain 1: QLQLQESGPGLVKPSETLSLTCTVSGGSISSSSYYWSWIRQHPGKGLEWIGYIYYSGSTNYNPSLKSRVTISVDTSKNQFSLKLSSVTAADTAVYYCARVGGAGGWPMDVWGQGTTVTVSS
chain 2: QAVLTQPASLSASPGESARLTCTLPSDINVRYYNIYWYQQKPGSPPRYLLYYYSDSHKGQGSGVPSRFSGSKDVSTNSGILLISGLQSEDIATYYCMTWSSNGSGVFGGGTQLTVLG

- EC50 [3]: 1.45 µg/mL
B3: A02.1 (antibody)
heavy: B2 chain 1 with S76L, F80I, K83R, S85T
light: B1 light
notes: Anti-CD38 IgG4 fused to attenuated IFN-alpha2b A145D at the heavy chain C-terminus; also called X355/02-HC-L0-IFN-alpha (A145D) IgG4

- Kd [4]: 0.378 nM
- Kd [5]: 27 nM
B4: X02.1 (antibody, human IgG4 S228P)
heavy: not shown
VL: B2 chain 2 with I91E, T93D
notes: Human IgG4 S228P, not fused to IFN; also called parental antibody X02.1

- Kd [6]: 24.7 nM
B5: X02.107 (antibody)
heavy: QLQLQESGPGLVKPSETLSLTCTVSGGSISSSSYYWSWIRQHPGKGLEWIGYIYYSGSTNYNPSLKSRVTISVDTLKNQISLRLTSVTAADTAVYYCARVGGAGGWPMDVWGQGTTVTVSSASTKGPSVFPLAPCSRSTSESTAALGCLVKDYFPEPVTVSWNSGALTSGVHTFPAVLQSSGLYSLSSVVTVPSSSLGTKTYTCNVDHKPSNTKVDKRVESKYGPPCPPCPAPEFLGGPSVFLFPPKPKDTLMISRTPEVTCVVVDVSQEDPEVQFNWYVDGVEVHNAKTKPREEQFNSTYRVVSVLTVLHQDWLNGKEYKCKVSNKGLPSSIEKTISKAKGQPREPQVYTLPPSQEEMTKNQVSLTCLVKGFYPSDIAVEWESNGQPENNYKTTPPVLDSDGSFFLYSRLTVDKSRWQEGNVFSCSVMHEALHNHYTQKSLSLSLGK
VL: B2 chain 2
notes: IgG4 S228P with the X02.1 VH; VL E83I, D85T relative to A02.1

- EC50 [7]: 16.8 µg/mL
- Kd [8]: 0.0368 nM
B6: X02.69 (antibody, human IgG4 S228P)
heavy: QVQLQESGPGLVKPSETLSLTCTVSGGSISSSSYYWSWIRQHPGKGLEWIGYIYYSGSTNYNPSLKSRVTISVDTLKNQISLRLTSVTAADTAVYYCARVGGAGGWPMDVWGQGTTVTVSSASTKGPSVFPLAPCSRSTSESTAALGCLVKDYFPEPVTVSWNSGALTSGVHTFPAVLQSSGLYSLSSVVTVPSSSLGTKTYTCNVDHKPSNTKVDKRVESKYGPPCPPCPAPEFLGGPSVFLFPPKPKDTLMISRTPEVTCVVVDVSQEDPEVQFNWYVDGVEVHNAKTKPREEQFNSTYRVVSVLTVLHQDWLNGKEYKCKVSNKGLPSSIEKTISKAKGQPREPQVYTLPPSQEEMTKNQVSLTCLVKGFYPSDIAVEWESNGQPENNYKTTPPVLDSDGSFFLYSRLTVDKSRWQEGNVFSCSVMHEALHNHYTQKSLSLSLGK
VL: B2 chain 2 with I91E, T93D
notes: IgG4 S228P; VH Q2V relative to X02.1
